Assay results from US20200181257A1 (Chugai, published 2020).
Where a chain is given by its changes, count along the chain named. Numbers in names are those of the source.

T1: human Fcγ receptor hFcgRIIa (R) (human, UniProt P12318 36-217)
T1 construct: also called FcγRIIa (type R); FcγIIA
T1 chain: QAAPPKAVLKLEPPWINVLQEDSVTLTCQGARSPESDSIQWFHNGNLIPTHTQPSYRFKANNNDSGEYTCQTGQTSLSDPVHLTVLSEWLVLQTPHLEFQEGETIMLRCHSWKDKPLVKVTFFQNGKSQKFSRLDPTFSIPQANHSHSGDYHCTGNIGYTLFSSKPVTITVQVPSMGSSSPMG

T2: human Fcγ receptor hFcgRIIb (human, UniProt P31994 43-217, limits assumed)
T2 construct: Construct used in the SPR assay is not described; also called FcγRIIb; FcγIIB
T2 sequence: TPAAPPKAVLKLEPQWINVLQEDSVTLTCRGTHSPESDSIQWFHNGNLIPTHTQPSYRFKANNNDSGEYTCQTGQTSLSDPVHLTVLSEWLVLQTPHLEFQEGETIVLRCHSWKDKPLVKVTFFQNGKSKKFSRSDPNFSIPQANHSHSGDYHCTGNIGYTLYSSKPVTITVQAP

T3: human Fcγ receptor hFcgRIIa (H) (human, UniProt P12318 36-217)
T3 construct: also called FcγRIIa (type H); FcγIIA
T3 sequence: T1 chain with R133H

B1: TS20 (antibody)
heavy: QVQLQESGPGLVRPSQTLSLTCTVSGYSITSDHAWSWVRQPPGRGLEWIGYISYSGITTYNPSLKSRVTMLRDTSKNQFSLRLSSVTAADTAVYYCARSLARTTAMDYWGQGSLVTVSSASTKGPSVFPLAPSSKSTSGGTAALGCLVKDYFPEPVTVSWNSGALTSGVHTFPAVLQSSGLYSLSSVVTVPSSSLGTQTYICNVNHKPSNTKVDKKVEPKSCDKTHTCPPCPAPELLGGPSVFLFPPKPKDTLMISRTPEVTCVVVDVSHEDPEVKFNWYVDGVEVHNAKTKPREEMYNSTYRVVSVLTVLHQDWLNGKEYKCKVSNSALPHPIEKTISKAKGQPREPQVYTLPPSRDELTKNQVSLTCLVKGFYPSDIAVEWESNGQPENNYKTTPPVLDSDGSFFLYSKLTVDKSRWQQGNVFSCSVMHEALHNHYTQKSLSLSP
light: not shown
notes: anti-IL6R IgG1, G1d with Q295M/K326S/A330H (EU)
B2: TS22 (antibody)
heavy: B1 heavy with M297L
light: not shown
notes: anti-IL6R IgG1, G1d with Q295L/K326S/A330H (EU)
B3: TS27 (antibody)
heavy: B1 heavy with M297L, S328A
light: not shown
notes: anti-IL6R IgG1, G1d with Q295L/K326A/A330H (EU)
B4: TS35 (antibody)
heavy: B1 heavy with L236K, L237K, Y298G, S300G, N327H, S328K, H332A
light: not shown
notes: anti-IL6R IgG1, G1d with L234K/L235K/Q295M/Y296G/S298G/N325H (EU)
B5: TS38 (antibody)
heavy: B1 heavy with L236K, L237R, S241K, Y298G, S300G, N327G, S328K, H332A
light: not shown
notes: anti-IL6R IgG1, G1d with L234K/L235R/S239K/Q295M/Y296G/S298G/N325G (EU)
B6: TS21 (antibody)
heavy: B1 heavy with S328A, H332Y
light: not shown
notes: anti-IL6R IgG1, G1d with Q295M/K326A/A330Y (EU)
B7: TS26 (antibody)
heavy: B1 heavy with M297L, H332Y
light: not shown
notes: anti-IL6R IgG1, G1d with Q295L/K326S/A330Y (EU)
B8: TS25 (antibody)
heavy: B1 heavy with S328A
light: not shown
notes: anti-IL6R IgG1, G1d with Q295M/K326A/A330H (EU)
B9: TS29 (antibody)
heavy: B1 heavy with L236K, L237K, S241K, H270K, D272F, Y298G, S300G, N327H, S328K, H332A
light: not shown
notes: anti-IL6R IgG1, G1d with L234K/L235K/S239K/H268K/D270F/Q295M/Y296G/S298G/N325H (EU)
B10: TS28 (antibody)
heavy: B1 heavy with L236K, L237K, S241K, H270K, D272F, Y298G, S300G, N327G, S328K, H332A
light: not shown
notes: anti-IL6R IgG1, G1d with L234K/L235K/S239K/H268K/D270F/Q295M/Y296G/S298G/N325G (EU)
B11: TS23 (antibody)
heavy: B1 heavy with M297L, S328A, H332Y
light: not shown
notes: anti-IL6R IgG1, G1d with Q295L/K326A/A330Y (EU)
B12: TS24 (antibody)
heavy: B1 heavy with H332Y
light: not shown
notes: anti-IL6R IgG1, G1d with Q295M/K326S/A330Y (EU)

Biological target: T1, human Fcγ receptor hFcgRIIa (R)
Experiment: SPR, antibody captured on Protein A
Experimental: (§1) Furthermore, binding ability to hFcgRs was measured by the method described in Reference Example 3.
(§2) Interactions between antibodies and hFcgRs (hFcgRIa, hFcgRIIa(R), hFcgRIIa(H), hFcgRIIb, hFcgRIIIa(F), and hFcgRIIIa(V)) were analyzed using Biacore T100 (GE Healthcare). HBS-EP+(GE Healthcare) was used for the running buffer, and the measurement temperature was set at 25° C. Protein A (Invitrogen) was immobilized by the amino coupling method, and an antibody of interest was captured thereon. Then, hFcγR solutions diluted using the running buffer were injected to allow interaction with the captured antibody at a flow rate of 30 μL/min for five minutes for hFcγRIa, and at a flow rate of 5 μL/min for one minute for the other hFcγRs. […] Since the hFcγR binding level depends on the amount of captured antibodies, the FcgR-binding levels were corrected so that the capture level of each antibody would be 200 RU (resonance unit) for hFcgRIa and 1000 RU (resonance unit) for the other hFcgRs. The captured antibodies were washed by allowing 10 mM glycine-HCl (pH 1.5) to react for 30 seconds at a flow rate of 30 μL/min to recycle the chip for reuse.

Row | binding relative to G1 (=100) | Binder
1 | 116 | B1
2 | 153 | B2
3 | 158 | B3
4 | 1.1 | B4
5 | 2.3 | B5
6 | 113 | B6
7 | 145 | B7
8 | 123 | B8
9 | 2.1 | B9
10 | 1.9 | B10
11 | 153 | B11
12 | 107 | B12

Biological target: T2, human Fcγ receptor hFcgRIIb
Experiment: SPR, antibody captured on Protein A
Experimental: as §1, §2

Row | binding relative to G1 (=100) | Binder
13 | 131 | B1
14 | 232 | B2
15 | 242 | B3
16 | 121 | B6
17 | 208 | B7
18 | 137 | B8
19 | 226 | B11
20 | 114 | B12

Biological target: T4, human Fcγ receptor hFcgRIIIa (V) (human, UniProt P08637 17-208)
T4 construct: also called FcγRIIIa allotype V158; FcγIIIA
Experiment: SPR, antibody captured on Protein A
Experimental: as §1, §2

T4 sequence (P08637 other isoform, or with tags, fused parts or gaps limits assumed): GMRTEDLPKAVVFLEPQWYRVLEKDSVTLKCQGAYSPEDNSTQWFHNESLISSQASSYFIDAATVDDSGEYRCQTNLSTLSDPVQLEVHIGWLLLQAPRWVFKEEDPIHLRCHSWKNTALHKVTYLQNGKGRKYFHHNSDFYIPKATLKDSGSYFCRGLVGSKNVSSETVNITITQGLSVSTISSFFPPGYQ

Row | binding relative to G1 (=100) | Binder
21 | 91.2 | B1
22 | 107 | B2
23 | 1.5 | B4
24 | 0.9 | B5
25 | 124 | B6
26 | 134 | B7
27 | 92.8 | B8
28 | 1.6 | B9
29 | 1.7 | B10
30 | 137 | B11
31 | 121 | B12

Biological target: T5, human Fcγ receptor hFcgRIa (human, UniProt P12314 16-292, limits assumed)
T5 construct: Construct used in the SPR assay is not described; also called hFcγRIa; FcγI
Experiment: SPR, antibody captured on Protein A
Experimental: as §1, §2

T5 sequence (P12314 16-292 limits assumed): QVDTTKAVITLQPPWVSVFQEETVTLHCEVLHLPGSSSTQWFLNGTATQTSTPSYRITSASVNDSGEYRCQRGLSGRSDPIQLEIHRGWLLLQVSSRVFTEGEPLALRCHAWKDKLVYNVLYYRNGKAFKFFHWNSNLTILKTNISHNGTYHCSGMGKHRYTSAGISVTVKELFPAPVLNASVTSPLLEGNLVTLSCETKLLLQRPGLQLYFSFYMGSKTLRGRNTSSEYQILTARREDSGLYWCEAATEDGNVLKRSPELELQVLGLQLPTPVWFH

Row | binding relative to G1 (=100) | Binder
32 | 106 | B1
33 | 108 | B2
34 | 106 | B3
35 | 0.5 | B4
36 | 0.3 | B5
37 | 107 | B6
38 | 107 | B7
39 | 105 | B8
40 | 5.1 | B9
41 | 5.8 | B10
42 | 107 | B12

Biological target: T3, human Fcγ receptor hFcgRIIa (H)
Experiment: SPR, antibody captured on Protein A
Experimental: as §1, §2

Row | binding relative to G1 (=100) | Binder
43 | 132 | B1
44 | 157 | B2
45 | 151 | B3
46 | 1.7 | B4
47 | 1.7 | B5
48 | 125 | B8
49 | 0.7 | B9
50 | 1.7 | B10
51 | 145 | B11
52 | 122 | B12
